This is an account of results in patent publication US20090098111A1 (CALIFORNIA INSTITUTE OF TECHNOLOGY, published 2009).

Experiment [1] has as its target T1, Xatr (endogenous Xenopus ATR in egg extracts) (Xenopus laevis, UniProt Q9DE14 1-2654).
T1 construct: Endogenous protein of whole or mock-depleted egg extracts, where endogenous Xatrip is also present
The experiment is described as follows: GST pull-down from Xenopus egg extracts, immunoblot (FIG. 4A). The procedure:
The extracts were filtered through a G25 Sephadex column to remove endogenous glutathione and incubated with glutathione agarose beads. The beads were isolated and immunoblotted for Xatr (top) and Xatrip (bottom). In FIG. 4B, egg extracts (lane 1) were immunodepleted with control (lane 2) or anti-Xatrip antibodies (lanes 3 and 4). For lane 4, recombinant XatripΔN222-FLAG was added back later. Extracts were immunoblotted with anti-Xatr (top) and anti-Xatrip antibodies (bottom). […] Binding of Xatr to glutathione beads was determined by immunoblotting as in FIG. 4A. In FIG. 4D, Xatr was immunoprecipitated from mock-depleted (lanes 1 and 2) and Xatrip-depleted extracts (lanes 3 and 4). Twice as much Xatrip-depleted extract was immunoprecipitated due to its reduced content of Xatr. […] Samples were also immunoblotted for Xatr (top) and Xatrip (middle).
Background: Immunoblotting shows a protein as a band on a membrane.

In experiment [2] the target is T1, Xatr (endogenous Xenopus ATR in egg …). The experiment is described as follows: GST pull-down from Xenopus egg extracts, immunoblot.

T1 sequence (Q9DE14 whole entry): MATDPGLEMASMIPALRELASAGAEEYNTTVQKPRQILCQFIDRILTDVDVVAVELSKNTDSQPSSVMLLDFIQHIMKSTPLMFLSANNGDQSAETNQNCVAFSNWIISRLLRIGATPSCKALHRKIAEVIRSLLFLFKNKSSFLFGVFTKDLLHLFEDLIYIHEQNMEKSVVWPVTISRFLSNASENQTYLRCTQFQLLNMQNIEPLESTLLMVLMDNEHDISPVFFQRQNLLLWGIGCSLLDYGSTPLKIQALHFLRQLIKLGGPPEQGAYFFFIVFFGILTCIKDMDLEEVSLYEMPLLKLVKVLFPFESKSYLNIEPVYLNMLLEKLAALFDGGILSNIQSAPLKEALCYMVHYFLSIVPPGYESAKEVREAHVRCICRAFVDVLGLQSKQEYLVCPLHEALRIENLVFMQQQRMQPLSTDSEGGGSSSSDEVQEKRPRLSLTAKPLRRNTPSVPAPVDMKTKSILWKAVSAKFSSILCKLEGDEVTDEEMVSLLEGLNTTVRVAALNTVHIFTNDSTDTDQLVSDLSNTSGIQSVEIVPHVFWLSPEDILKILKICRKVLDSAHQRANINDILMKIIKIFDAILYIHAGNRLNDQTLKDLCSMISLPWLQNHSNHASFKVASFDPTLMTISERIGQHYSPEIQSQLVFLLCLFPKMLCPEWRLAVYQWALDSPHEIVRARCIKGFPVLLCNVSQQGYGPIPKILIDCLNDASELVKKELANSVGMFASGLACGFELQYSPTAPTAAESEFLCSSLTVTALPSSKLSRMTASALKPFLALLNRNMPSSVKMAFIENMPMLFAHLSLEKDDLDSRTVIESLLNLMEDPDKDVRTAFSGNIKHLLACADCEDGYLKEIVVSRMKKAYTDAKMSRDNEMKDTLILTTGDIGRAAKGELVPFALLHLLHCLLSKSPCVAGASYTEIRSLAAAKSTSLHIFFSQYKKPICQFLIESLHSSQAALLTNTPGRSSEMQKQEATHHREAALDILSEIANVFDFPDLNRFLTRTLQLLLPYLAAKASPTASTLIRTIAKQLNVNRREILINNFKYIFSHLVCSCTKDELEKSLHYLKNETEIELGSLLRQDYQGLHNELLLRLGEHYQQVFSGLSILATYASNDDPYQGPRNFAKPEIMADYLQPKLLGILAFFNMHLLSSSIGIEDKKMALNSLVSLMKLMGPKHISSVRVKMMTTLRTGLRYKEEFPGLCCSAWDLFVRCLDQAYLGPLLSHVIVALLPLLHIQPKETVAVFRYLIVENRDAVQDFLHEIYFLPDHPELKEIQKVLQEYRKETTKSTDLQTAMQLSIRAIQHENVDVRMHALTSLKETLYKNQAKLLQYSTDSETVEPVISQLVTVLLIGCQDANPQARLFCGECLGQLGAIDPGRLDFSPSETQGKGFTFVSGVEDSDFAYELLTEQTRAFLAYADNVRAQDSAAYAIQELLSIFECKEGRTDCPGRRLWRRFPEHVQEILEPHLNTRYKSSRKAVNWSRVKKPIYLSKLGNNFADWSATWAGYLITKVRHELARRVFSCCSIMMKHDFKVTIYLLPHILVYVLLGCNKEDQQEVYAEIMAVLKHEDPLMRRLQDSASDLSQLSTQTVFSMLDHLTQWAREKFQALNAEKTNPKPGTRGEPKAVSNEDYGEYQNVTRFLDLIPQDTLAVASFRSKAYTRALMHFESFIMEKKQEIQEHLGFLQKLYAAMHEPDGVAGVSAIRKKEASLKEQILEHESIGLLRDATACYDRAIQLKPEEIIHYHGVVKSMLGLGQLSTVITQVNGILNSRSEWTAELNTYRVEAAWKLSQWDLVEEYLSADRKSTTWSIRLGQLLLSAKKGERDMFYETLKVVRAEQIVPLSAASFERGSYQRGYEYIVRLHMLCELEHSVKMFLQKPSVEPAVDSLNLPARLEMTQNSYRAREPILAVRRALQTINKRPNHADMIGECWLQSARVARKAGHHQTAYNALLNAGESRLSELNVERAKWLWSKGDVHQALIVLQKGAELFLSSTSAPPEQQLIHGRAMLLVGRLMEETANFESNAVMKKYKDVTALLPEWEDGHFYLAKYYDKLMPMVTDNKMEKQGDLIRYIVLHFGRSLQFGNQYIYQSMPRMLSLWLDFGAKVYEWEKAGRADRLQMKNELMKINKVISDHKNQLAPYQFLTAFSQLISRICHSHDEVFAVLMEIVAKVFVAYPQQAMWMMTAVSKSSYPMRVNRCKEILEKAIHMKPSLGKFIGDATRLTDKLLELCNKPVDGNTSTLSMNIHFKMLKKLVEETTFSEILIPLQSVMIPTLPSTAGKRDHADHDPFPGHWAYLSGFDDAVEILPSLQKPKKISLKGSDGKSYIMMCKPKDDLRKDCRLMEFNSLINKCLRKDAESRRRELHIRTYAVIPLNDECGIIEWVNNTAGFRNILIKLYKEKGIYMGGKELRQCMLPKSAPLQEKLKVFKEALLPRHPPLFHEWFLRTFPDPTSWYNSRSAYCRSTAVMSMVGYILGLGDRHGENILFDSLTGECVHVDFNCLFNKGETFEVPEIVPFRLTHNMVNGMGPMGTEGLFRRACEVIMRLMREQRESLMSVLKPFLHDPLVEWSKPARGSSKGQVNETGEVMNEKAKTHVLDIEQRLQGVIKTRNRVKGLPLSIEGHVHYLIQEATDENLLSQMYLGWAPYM

B1: GST-XtopBP1 (1197-1513) (other)
chain: EFEPKSAMRTPVIENNLQSPTKPDHLTPTPQAPSIAFPLANPPVAPQPREKPVQPFSKEETLKERRFQLSSLDPQERIDYSQLIEELGGVVIEKQCFDPSCTHIVVGHPLRNEKYLASMAAGKWVLHRSYLEACRAAKRFIQEEDYEWGSISILSAVTNINPQQRMLAEAAMRWRKKLQGIKQNMGIAEGAFSGWKVILNVDQTKEPGFKRLLQSGGAKVFAGHSSPLFKEASHLFADFSKLKPDEPRVNVAEAAAQGVNCLKPEYIADYLMKELPPPMNNYCLPDAIPYVRVTGTGLSRKRKTSGDVSDVKRSRHY
notes: BRCT-containing fragment; not shown: glutathione-S-transferase (GST) fusion partner
Regarding B1, the binding result in experiment [1] was “no binding”.

B2: GST-XtopBP1 (623-984) (other)
chain: TPVPFLEGSTPLRECVLSVSQFMGAERDSLVYLAGLLGAKVQEFFVRKANPKKGMFASTHLVLKDAEGSKYEAAKKWNLPAVTMNWLLQCARTGRKADEDSYLVDNVPEEDKDESFISQTYKPQAIRLSMHAPCHLENHPEALTKAAVTPLDMNRFKSKAFQSVISQHNKNPQTSGGESKVLQREPSLHLDTPSKFLSKDKLFKPSFDVKDALAALETPGGPNQKNRTQSTPLSEVIGRNLQLAIANSTRQTAAVTASPQLKAAEKKEFDNSKLLINVVICVSKKLIKKQGELNGIAASLGAEYRWCFDESVTHFIYHGRQNDMSREYKSVKERSGIYIVSEHWLFACSEQQKRVPEALYPH
notes: BRCT-containing fragment; also called GST fusion of the 623-984 segment from XtopBP1; not shown: glutathione-S-transferase (GST) fusion partner
In the case of B2, the binding result in experiment [2] was “no binding”.

B3: GST-XtopBP1 (1-348) (other)
chain: MASSENEPFCVKFIKSPENSEYFFKAYEAIKQIQSDESLQLTEEREALLLKEKDKSLYICDPFSGAAFSHLKKLGCRIVGPQVVIFCMENQRRVPRAEYPVYNMAMADVTISCTSLDKETREDVHHYVQIMGGCVYRDLNVSVTHLIAGEVGSKKYLVAASLEKPILLPSWVKELWEKSNQRIIRYSDVNMTEYLCPIFRGCTICVTGLSSLDRKEVQRLTALHGGEYTGQLKMNESTHLIVQEAKGQKYECARKWNVHCISVQWFFDSIEKGFCQDETMYKIEPASTIKSVPDTSTPTGGNSKPNSRALYDVSQISNISTSCVNESAFNSAMASRLDPPADTLENLD
notes: as for B1
For the molecule B3, the binding result in experiment [2] is “no binding”.

B4: GST-XtopBP1 (333-646) (other)
chain: MASRLDPPADTLENLDISSLQAPDDLLDGCRIYLCGFGGRKLDKLRKLINNGGGVRFNQLTGDVTHIIVGETDEELKQFLNKTQHRPYVLTVKWLLDSFAKGHLQPEEIYFHSSYQQTEMPSPFEPAINLTANKMSSTRGPLNHTRNHQADEDLLSQYTENNSTLIEDEHPKTSNTNSISQMSMHEDMTTCTSQSGLADTSTIIEGGLFSRKQFMVLGFLEEDEACIIDIIKKSAGKVLSSQKRAIADYAVVPLLGCEVESTVGEVVTNAWLGMCIEQEKLLDPHSNALFTPVPFLEGSTPLRECVLSVSQFMG
notes: as for B1
For the molecule B4, in experiment [2], the binding result is reported as “no binding”.
